These results are taken from the nanobody polyreactivity screen of Harvey et al. (2022).

The data set can be described thus: yeast display, Sf9 membrane polyspecificity reagent, FACS + sequencing; frameworks hold sequencing errors. The gist of the method: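 A nanobody's polyreactivity label depends on the gate it was sorted from. Yeast display cells were stained with 10% biotinylated, detergent-solubilized Sf9 membrane reagent for 1 hour at 4 °C, enriched on streptavidin microbeads and sorted by FACS. The low and high (top ~1%) gates were set on anti-HA fluorescence for expression and streptavidin fluorescence for reagent binding.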
Consider “QVQLVESGGGLVQAGGSLRISCAASGSNFPYYAMGWYRQAPWQERELVAAISRGGGTTYYADSVKGRFTISRDNAKNTVYLQMISLKPEDTAVYYCAARQWRISTPYDYWGQGTQVTVSS”, for which the “polyreactivity (PSR sort gate)” value is “high polyreactivity”.

As to “QVQLVESGGGLVQAGGSLRISCAASGSNFRTYVMGWYRQAPGKERELVAAISRRGGSTYYADSVKGLFTISRDNAKKTVYLQMNSLKPEDTAVYYCAAEDEYSLEFSTLDYWGQGTQVTVSS”, the “polyreactivity (PSR sort gate)” value was “high polyreactivity”. As to “QVQLVESGGGLVQAGGSLRISCAASGSSFHDYAMGWYTQAPGKERELVAAISSSGTSTYYADSVKGRFTISRDNANNTVYLQMNILKPEDTAVYYCAVYAISFAWSGWTYEDYWGQGTQVNVSS”, the “polyreactivity (PSR sort gate)” value is reported as “low polyreactivity”. The result for “QVQLVESGGGLVQAGGSLRISCAASGSTFAYNAMGWYIQAPGKERELVAVISKGGGRTYYADSVKGRFTISRDNAKNTVYLQINSLKPEDTAVYYCAARYIPVYTREREYNYWGQGTQVTVSS” reads “high polyreactivity”; that for “QVQLVESGGGLVQAGGSLRISCAASGSTFEYYAMGWYRQAPGKERELVATISIDGRTNYADSVKGRFTISRDNAKNTVYLQMNSLKPEDTAVYYCAARPYWRHRYDYWGQGTQVTVSS”, “low polyreactivity”; that for “QVQLVESGGGLVQAGGSLRISCAASGSTFFRNAMGRYRQAPGKERELVAAITWSGGSTYYADSVKGRFTISRDNAKNTVYLQMNSLKPEDTAVYYFAAGLSYWTPHYYPFDYWGQGTQVTVSS”, “low polyreactivity”. For “QVQLVESGGGLVQAGGSLRISCAASGSTFFRYAMGWYRQAPGKERELVAAIYKSGASTYYADSVKGRFTISRDNPKNSVYLQMNSLKPEDTGVYYCNADVKNSSAREWQYGYDYWGQGTQVTVSS” the value was “low polyreactivity”. Take “QVQLVESGGGLVQAGGSLRISCAASGSTFGEYALGWYRQAPGKERELVAVITSDDNTYYADSVKGRFTISRDNAKNTVYLQMNSLKPEDTAVYYCATDDRRRFKYWGQGTQVTVSS”: the “polyreactivity (PSR sort gate)” value is reported as “high polyreactivity”. As for “QVQLVESGGGLVQAGGSLRISCAASGSTFGGYVLGWYRPAPGKERELVAAISRSGASTYYADSVKGRFTISRDNAKNTVYLQMNSLKPEDTAVYYCAAYQARGLDYWGQGTQVTVSS”, the “polyreactivity (PSR sort gate)” value is “high polyreactivity”. In the case of “QVQLVESGGGLVQAGGSLRISCAASGSTFGRYAMGWYRQAPGKEREFVAAITQGGTNTYYADSVKGRFTISRDNAKNTVYLQMNSLKPEDTAVYYCARVRRYPLRYNYWGQGTQVTVSS”, the “polyreactivity (PSR sort gate)” value is on record as “high polyreactivity”.

Turning to “QVQLVESGGGLVQAGGSLRISCAASGSTFSPYAMGWYRQAPRKERELFAAISASGGGTYYADSVKGRFTISRDNAKNTVYLQMNSLKPEDTAVYYCARDYGWDISKGRYGYWGQGTQVTVSS”, the “polyreactivity (PSR sort gate)” value was “low polyreactivity”. On to “QVQLVESGGGLVQAGGSLRISCAASGSTFSRNAMVWYRQAPGKERELVATISRSGRTNYADSVKGRFTISRDNAKNTVYLQMNSLKPEDTAVYYCNAGYRRSYEYWGQCTQVTVSS”, for which the “polyreactivity (PSR sort gate)” value is recorded as “low polyreactivity”. The result for “QVQLVESGGGLVQAGGSLRISCAASGSTFWGYAMGWYRQAPGKERELVATINQSAGSTYYADSVKGRFTISRDNAKNTVYLQMNSLKPEDTAVYYCAAEARVQFSYDYWGQGTQVTVSS” reads “low polyreactivity”; that for “QVQLVESGGGLVQAGGSLRISCAASGSTFWGYDKGWYRQAPGKERELVAAITRNGGGTYYADSVKGRFTISRDNAKNTVYLQMNSLKPEDTAVYYCASTRGAYYLYGGHKMDYWGQGSQVTVSS”, “high polyreactivity”. Take “QVQLVESGGGLVQAGGSLRISCAASGSTLLRNAMGWYRQAPGKERELVAVITYSGGSTYYADSVKGRFTISRDNAKNTVYLQMNSLKPEDTAVYYCAADIWYYVRYPTDAYSKFDYCGQGTQVTVSS”: the “polyreactivity (PSR sort gate)” value was “low polyreactivity”. For “QVQLVESGGGLVQAGGSLRISCAASGSTNEYAMGWYRQAPGKERELVAAITWSGGRTYYADSVKGRFTISRDNAKNTVYLQMNSLKPEDTAVYYCAKAYYARHGRYTYYSWGQGTQVTVSS” the value was “high polyreactivity”. For “QVQLVESGGGLVQAGGSLRISCAASGSTSYNYVMGWYRQAPGKERELVAGITWSDDITYYADSVKGRFTISRDNAKNTVYLQMNSLKPEDTAVYYCAAEDRPLYWRFPDEMDYWGQGTQVTVSS” the value was “low polyreactivity”; for “QVQLVESGGGLVQAGGSLRISCAASGTTFPYNGMGWYRQAPGKERELVASISWSGASTYYADSVKGRFTISRDNAKNTVYLQMNSLKPEDTAVYYCAADPGYYSWGSSQDDYWGQGTQVTVSS”, “low polyreactivity”. For “QVQLVESGGGLVQAGGSLRISCAASGVIFGTYAMRSYRQAPGKERELVAAITSGGTTIYADSVKGRFTISRDNAKNTVYLQMNSLKPEDTAVYYCAARRLYVGYGYDYWGQGTQVTVSS” the value was “high polyreactivity”. With “QVQLVESGGGLVQAGGSLRISCAAYGSTFGPYAMGWYRQAPGKERELVAAITWNGGSTYYADSVKGRFTISRDNAKNTVYLQMTSLKPEDTAVYYCAAKAYGRKGTYRVNYWGQGTQVTVSS”, the “polyreactivity (PSR sort gate)” value was “high polyreactivity”. For “QVQLVESGGGLVQAGGSLRISCADSASIFWGYAMGWYREAPGKERELVATIRNRGGSTYYADSVKGRFTISRDNAKYTVYLQMNSLKPEDTAVYYCAAVSYRQYYGWGNYWGQVTQVTVSS” the value was “low polyreactivity”; for “QVQLVESGGGLVQAGGSLRISCAPSGIIFTDYAMGWYRQAPGKERELVAAISSGGGSTYYADSVKGRFTISRDNAKNTVYLQMNSLKPEDTAVYYCAAEGYLISGAGDYLYDYYWGQGTQVTVSS”, “high polyreactivity”; for “QVQLVESGGGLVQAGGSLRISCAPSGSTSVQYAMGWYRQAPGKERELVAAIDRSGGSTSYADSVKGRFTISRDNAKNTVYLQMNSLKPEDTAVYYCNADPVRSTYSYDYWGQGTQVTVSS”, “low polyreactivity”. Take “QVQLVESGGGLVQAGGSLRISCASSVRTFAWNAMGWYRQAPGKERELVAVITSGVSTNYADSVKGRFTISRDNANNTVYLQMNSLKPEDTAVYYCAARSWVYSVIGDNWGLGTQVTVSS”: the “polyreactivity (PSR sort gate)” value was “low polyreactivity”.

As for “QVQLVESGGGLVQAGGSLRISCDASGSTFAWYAMGWYRQAPGKERELVAAISRTGRTYYADSVKGRFTISRDNAKNTVYLQMNRLTPEDTAVYYCAGRIERFYRDQRYDYWGQGTQVTVSS”, the “polyreactivity (PSR sort gate)” value was “high polyreactivity”. On to “QVQLVESGGGLVQAGGSLRISCEAYGSIFGSYAMGWYRQEPGKERELVAGITYRGSSTYYADSVKGRYTISRDNAKNTVYLQMNSLKPEDTAVYYCAADPVFDEYDYWGQGTQVTVSW”, for which the “polyreactivity (PSR sort gate)” value is recorded as “low polyreactivity”. For “QVQLVESGGGLVQAGGSLRISCSASGGIFDPYAMGWYRQAPGKERELVAAITNSGGSTYYADSVKGRFTISRDNAKNTVYLQMNSLKPEDSAVYYCAAEGLYVGYDYWGHGTQVTVSS” the value was “low polyreactivity”; for “QVQLVESGGGLVQAGGSLRITCAASGSTFYRNAMGWYRQAPGKERELVAALSRGGSTYYADSVKGRFTISRDNAKNTVYLQMNSLKPEDSAVYYCAARYYSYQYGRHTRYQSVYWGQGTQVTVSS”, “high polyreactivity”. As for “QVQLVESGGGLVQAGGSLRKSCAASGSTFVDYDMGWYRQAPGKERELVAGITTGGSTNYADSVKGRFPISRDNAKNTVYLQMNSLKPEDTAVYYCNADSYPILVPDYLYYWYEYWGQGTQVTVSS”, the “polyreactivity (PSR sort gate)” value is given as “low polyreactivity”. For the sequence “QVQLVESGGGLVQAGGSLRLAVLPPDLPSTLNDMGWYRQAPGKERELVAAITRGGSTNYADSVKGRFTISRDNAKNTVYLQMNSLKPEDTAVYDCAAPYAGWRDGGDYWGQGTQVTVSS”, the “polyreactivity (PSR sort gate)” value was “low polyreactivity”. The result for “QVQLVESGGGLVQAGGSLRLCCAASGFICGKYALGWYRQAAGNEWVLVAAITSDGRTYYADSVKGRFTISRDNPKNTVYVQMNSLKPEDTAVYYCAVDYYWYSYSGYDDYWGQGTQVTVSS” reads “high polyreactivity”; that for “QVQLVESGGGLVQAGGSLRLCCAASGFTFSWYAMGWYRQAPGKERELVAAISSSGGSTYYADSVKGRFTISRDNAKNTVYLQMYSLKPEDTAVYYCNAYRSASVVVGYDYWGQGTQVTVSS”, “high polyreactivity”; that for “QVQLVESGGGLVQAGGSLRLCCAASGLTFAYYDMGWYRQAPGKERELVAAITSGGTTNYADSVKGRFTISRDNAKNTVYLQMNSLKPEDNAVYYCATDSWYGSWKYDYWGQGTQVTLSS”, “low polyreactivity”. Regarding “QVQLVESGGGLVQAGGSLRLCCAASGLTFYPNAMGWYRQAPGKEREFVASISISGRTYYADSVKGRFTISRDNAKNTVYLQMNSLKPEDTAVYYCAARYVRSGLYRKYDYWGQGTQVTVSS”, the “polyreactivity (PSR sort gate)” value is on record as “high polyreactivity”. As for “QVQLVESGGGLVQAGGSLRLCCAASGRTFPYYAMGWYRQAPGKERELVAAISSSGGRTYYADSVKGRFTISRDNAKNTVYLQMNSLKPEDTAVYYCNVDAWYPYQGFLVGYYYWGQGTQVTVSS”, the “polyreactivity (PSR sort gate)” value is listed as “low polyreactivity”. As for “QVQLVESGGGLVQAGGSLRLCCAASGSTFADNAMGWYRQAPGTDGEFVAGISTNGGSTYYADSVKGRFRISRDNAKTTVDCQLNSLKPEDTAVYDSAAVNYYDQYGDYYWGQGTQVTVSS”, the “polyreactivity (PSR sort gate)” value is reported as “low polyreactivity”. For “QVQLVESGGGLVQAGGSLRLCCAAYGFTFRINAMGWYRQAHGKERELVAYMSGRGGSTYYADSVQGRFTISRDNAMNTVYLQMNSLKPEDTAVYYCAATGSSSMSSYYLGQGTQVTVSS” the value was “high polyreactivity”. With “QVQLVESGGGLVQAGGSLRLGCAASGSTLYSYAMGWYRQAPGKERELVASISSGASTYYADSVKGRFTISRDNAKNTVYLQMNSLKPEDTAVYYCNADAGSYHTGWVTPWGSDEYDYWGQGTQVTVSS”, the “polyreactivity (PSR sort gate)” value was “low polyreactivity”.

In the case of “QVQLVESGGGLVQAGGSLRLICAAAGRTFWYNAMGWYRQAPGKERELVAVISSGAITYYADSVKGRFTISRDNAKNTVYLQMNSLKPEDTAVYYCAARSYLSLIDYWGQGTQVTVSS”, the “polyreactivity (PSR sort gate)” value is “high polyreactivity”. On to “QVQLVESGGGLVQAGGSLRLICAACGYTFEHYAMGWYRQAPGKERELVAAITRSGGSTSYADSVKGRFTISRDNAKNTVFLQMNRVKPEDTAVYYCAADSIRYFDYDYWGQGPQVTVSS”, for which the “polyreactivity (PSR sort gate)” value is given as “low polyreactivity”.
